Assays:
Conditions in all cases: protein: recombinant; tags: GST; label: 5' 6FAM on top strand; blunt
[1] = biological target: T1, FOXM1B DBD WT (GST fusion) (UniProt Q08050-2 235-327); assay: EMSA; FP: 50 mM Tris-HCl pH 7.5, 5 mM MgCl2, 1 mM DTT, 2% glycerol; protein 80 nM-5 uM; temperature not stated
T1 sequence: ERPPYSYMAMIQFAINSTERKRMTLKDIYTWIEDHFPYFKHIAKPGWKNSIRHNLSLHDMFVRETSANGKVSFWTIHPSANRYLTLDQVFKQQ

FOXM1 DBD R286A = biological target: T2, FOXM1 DBD R286A (UniProt Q08050 235-327, R286A); assay: fluorescence polarization; up to 5 uM protein; FP: 50 mM Tris-HCl pH 7.5, 5 mM MgCl2, 1 mM DTT, 2% glycerol; protein 80 nM-5 uM; temperature not stated
T2 sequence: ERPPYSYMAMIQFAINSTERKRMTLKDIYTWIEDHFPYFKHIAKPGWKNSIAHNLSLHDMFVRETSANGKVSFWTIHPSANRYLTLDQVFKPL

FOXM1 DBD S290A = biological target: T3, FOXM1 DBD S290A (UniProt Q08050 235-327, S290A); assay: as above
T3 sequence: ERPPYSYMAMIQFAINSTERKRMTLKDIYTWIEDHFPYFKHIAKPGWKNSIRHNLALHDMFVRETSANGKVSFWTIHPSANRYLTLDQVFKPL

[2] = biological target: T4, FOXM1 DBD WT (GST fusion) (UniProt Q08050 235-327); assay: fluorescence polarization; FP: 50 mM Tris-HCl pH 7.5, 5 mM MgCl2, 1 mM DTT, 2% glycerol; protein 80 nM-5 uM; temperature not stated
T4 sequence: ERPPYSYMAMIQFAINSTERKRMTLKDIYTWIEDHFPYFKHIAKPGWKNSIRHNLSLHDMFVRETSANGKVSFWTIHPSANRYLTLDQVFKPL

[3] = biological target: T1, FOXM1B DBD WT (GST fusion); assay: as above
FOXM1 DBD H287A = biological target: T5, FOXM1 DBD H287A (UniProt Q08050 235-327, H287A); assay: as above
T5 sequence: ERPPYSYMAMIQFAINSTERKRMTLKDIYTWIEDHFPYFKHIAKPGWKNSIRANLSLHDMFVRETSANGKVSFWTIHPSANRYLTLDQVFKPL

B1: FKH consensus 16-mer (dsDNA)
DNA 1: AAACAAACAAACAATC
DNA 2: GATTGTTTGTTTGTTT
- Kd [1]: 346 ± 24 nM
- binding result (FOXM1 DBD R286A): no binding
- binding result (FOXM1 DBD S290A): no binding
- Kd [2]: 1100 ± 20 nM
- Kd [3]: 224 ± 45 nM
- Kd (FOXM1 DBD H287A): 3040 ± 100 nM

B2: MYC P2 TATA box 16-mer (dsDNA)
DNA 1: TGAGTATAAAAGCCGG
DNA 2: CCGGCTTTTATACTCA
- Kd [3]: 177 ± 79 nM

B3: HP1BP3 16-mer (dsDNA)
DNA 1: CCTCAGCCAATCGGGG
DNA 2: CCCCGATTGGCTGAGG
- Kd [3]: 489 ± 233 nM

B4: CCNB2 16-mer (dsDNA)
DNA 1: ACGCGGTATTTGAATC
DNA 2: GATTCAAATACCGCGT
- Kd [3]: 436 ± 147 nM
